Source: patent US20250074980A1 (BRIGHAM AND WOMEN S HOSPITAL, published 2025)
Several values for one entry are separate records, joined by “and”; a condition that tells them apart may be missing. Equal values may be shown once.

T1: CEACAM8 on transfected HeLa cells (human, UniProt P31997 35-320)
T1 construct: whole, on cells; also called HeLa-CEACAM8; HeLa C8
T1 sequence (looked up): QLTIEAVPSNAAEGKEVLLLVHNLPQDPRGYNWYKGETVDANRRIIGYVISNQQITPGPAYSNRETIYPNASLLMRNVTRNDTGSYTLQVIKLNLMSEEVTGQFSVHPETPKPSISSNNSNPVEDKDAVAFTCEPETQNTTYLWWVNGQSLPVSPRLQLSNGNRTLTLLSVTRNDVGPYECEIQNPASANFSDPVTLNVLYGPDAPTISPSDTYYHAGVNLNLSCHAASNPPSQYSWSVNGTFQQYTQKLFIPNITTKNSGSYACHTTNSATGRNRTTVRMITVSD

T2: CEACAM3 on transfected HeLa cells (human, UniProt P40198 35-252)
T2 construct: whole, on cells; also called HeLa-CEACAM3; HeLa C3
T2 sequence (looked up): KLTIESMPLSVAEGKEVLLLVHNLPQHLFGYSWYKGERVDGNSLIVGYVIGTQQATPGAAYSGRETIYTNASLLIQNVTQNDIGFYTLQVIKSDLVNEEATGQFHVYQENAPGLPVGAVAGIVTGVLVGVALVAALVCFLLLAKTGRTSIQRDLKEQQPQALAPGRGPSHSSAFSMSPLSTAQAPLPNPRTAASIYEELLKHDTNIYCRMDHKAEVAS

T3: CEACAM6 on transfected HeLa cells (human, UniProt P40199 35-320)
T3 construct: whole, on cells; also called HeLa-CEACAM6; HeLa C6
T3 sequence (looked up): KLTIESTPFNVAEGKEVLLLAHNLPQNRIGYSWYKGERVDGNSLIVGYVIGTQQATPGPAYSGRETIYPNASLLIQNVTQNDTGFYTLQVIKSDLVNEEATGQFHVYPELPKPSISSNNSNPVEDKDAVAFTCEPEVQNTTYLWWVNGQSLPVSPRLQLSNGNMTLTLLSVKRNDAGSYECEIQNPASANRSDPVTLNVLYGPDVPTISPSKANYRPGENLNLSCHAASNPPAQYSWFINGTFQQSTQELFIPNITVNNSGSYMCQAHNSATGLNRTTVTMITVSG

T4: His-tagged CEACAM1 (human, UniProt P13688 35-428)
T4 construct: 45 kDa SPR analyte; also called CEACAM1-HIS; CEACAM1 analyte
T4 sequence: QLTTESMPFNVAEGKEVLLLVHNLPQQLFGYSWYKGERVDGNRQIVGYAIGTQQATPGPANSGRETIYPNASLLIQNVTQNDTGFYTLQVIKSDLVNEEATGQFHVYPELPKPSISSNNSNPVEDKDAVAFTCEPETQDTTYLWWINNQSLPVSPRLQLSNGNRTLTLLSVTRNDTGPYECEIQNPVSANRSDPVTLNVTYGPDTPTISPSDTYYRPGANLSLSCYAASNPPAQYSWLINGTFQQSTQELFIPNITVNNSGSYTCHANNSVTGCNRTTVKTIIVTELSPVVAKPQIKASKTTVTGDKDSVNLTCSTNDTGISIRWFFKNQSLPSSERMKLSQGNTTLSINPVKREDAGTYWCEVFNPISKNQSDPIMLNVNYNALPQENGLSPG

T5: GST-CEACAM1 (human, UniProt P13688 35-141, limits assumed)
T5 construct: also called human CEACAM1-GST protein
T5 sequence: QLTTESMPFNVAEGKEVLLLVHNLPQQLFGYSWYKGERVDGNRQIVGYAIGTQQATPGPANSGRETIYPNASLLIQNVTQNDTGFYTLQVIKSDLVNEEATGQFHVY


Experiments:
[1] = target: T1, CEACAM8 on transfected HeLa cells; assay: flow cytometry, transfected HeLa
In short: (§1)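 Flow cytometry was done on HeLa cells stably expressing single CEACAM family members, cultured in DMEM with 10% fetal bovine serum at 37° C, 5.0% CO₂, and stained with the test antibody, then a fluorochrome-conjugated isotype-specific secondary antibody, with DAPI for viability. Staining of each transfectant serves as the readout of binding selectivity.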

[2] = target: T2, CEACAM3 on transfected HeLa cells; assay: flow cytometry, transfected HeLa
In short: as §1

[3] = target: T3, CEACAM6 on transfected HeLa cells; assay: flow cytometry, HeLa-CEACAM6 transfectants, % positive cells
Experimental: Binding selectivity for CEACAM1 was tested for the 24 humanized antibody variants that bound to CEACAM1 (see Table 3), as well as the chimeric control antibody VH0/Vκ0, by flow cytometry on HeLa cells transfected with CEACAM1, 3, 5, 6 and 8. […] There was no evidence of any staining of the HeLa-CEACAM3 or HeLa-CEACAM8 transfectants. […] Due to its favorable affinity to and selectivity for CEACAM1 as well as its favorable expression level, VH1/Vκ8 was chosen as the framework for affinity maturation.

[4] = target: T4, His-tagged CEACAM1; assay: SPR multi-cycle, IgG captured
Experimental: As an alternative approach to assess the binding of the 36 antibody combinations and the three control antibodies to CEACAM1, a kinetic analysis was performed on a Biacore T200 (serial no. 1909913) running Biacore T200 Evaluation Software V2.0.1 (Uppsala, Sweden). All experiments were run at 25° C. with HBS-P+ running buffer (pH 7.4) (GE Healthcare, cat. no. BR100671). All kinetic experiments were performed using His-tagged CEACAM1 as the analyte. For all experiments, antibodies were immobilized onto a Series S Protein A sensor chip surface. For kinetic experiments, the amount of immobilized/captured ligand was limited to avoid mass transfer effects at the surface of the chip with the surface ideally having an analyte binding level (Rₘₐₓ) of 50-150 RUs. Using a MW of 45 kDa for the CEACAM1 analyte, 150 kDa for the antibody ligand (estimated value for IgG), 50 RU for Rmax and the stoichiometry (Sm) as 2 due to the ability of each antibody to bind 2 target molecules, a target response level of ˜75 RUs was set for capture of all the sample antibodies.
The signal from the reference channel Fc1 was subtracted from that of Fc2, Fc3 and Fc4 to correct for differences in non-specific binding to a reference surface, a global Rmax parameter was used in the 1-to-1 binding model. The relative Kp compared to […] was calculated by dividing the Kp of the humanized CEACAM antibody variants by that of the chimeric antibody VH0/Vκ0 on the same chip. A summary of the averaged relative Kp obtained for the 12 antibody combinations analyzed using multi cycle kinetics can be found in Table 5.

[5] = target: T4, His-tagged CEACAM1; assay: SPR single-cycle, IgG captured
In short: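 Biacore T200 single-cycle kinetics at 25° C in HBS-P+ (pH 7.4): antibodies (purified or HEK EBNA supernatant, 1 μg/ml) captured on Protein A to ~75 RU, His-tagged CEACAM1 analyte at 3.125–50 nM (5-point 2-fold) at 50 μl/min without regeneration. Reference channel Fc1 subtracted.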

[6] = target: T5, GST-CEACAM1; assay: competition ELISA vs parental murine antibody
Experimental: The binding of the purified antibodies to human CEACAM1 was assessed in a competition ELISA assay. Nunc Immuno MaxiSorp 96 well flat bottom microtitre plates were pre-coated with 1 μg/ml of GST-CEACAM1 in 1×PBS, overnight at 4° C. The following day the plates were blocked for 1 hour at room temperature (“RT”) with 2% BSA/PBS before washing 3× with PBST pH 7.4. A 3-fold dilution series of the chimeric antibody chimeric antibody VH0/Vκ0, an irrelevant IgG4 antibody, and the humanized CEACAM1 antibodies from 100 μg/ml to 0.07 or 0.002 μg/ml were pre-mixed with a constant concentration of parental murine antibody (0.45 μg/ml final concentration), added to the plate and incubated for 1 hour at room temperature. Following 3×PBST washes, the binding of the parental murine CEACAM1 antibody was detected with an anti-mouse-HRP and TMB substrate. The reaction was stopped with 3 M HCl, absorbance read at 450 nm on a Dynex Technologies MRX TC II plate reader and the binding curves plotted. The binding of the humanized CEACAM antibody variants to CEACAM1 was compared to the chimeric antibody (VHO/Vκ0), which was included on each plate.

Binder	binding result [1]	binding result [2]	binding result [3]	Kd [4]	average relative KD to VH0/Vκ0 [4]	Kd [5]	relative KD to VH0/Vκ0 [5]	koff [4]	kon [4]	relative KD to VH0/Vκ0 [4]	binding result [6]	binding result [5]
VH2/Vκ9 (antibody, IgG4, V domains shown, IgG4 (S241P), kappa) VH: EVQLLESGGGLVQPGGSLRLSCAASGFIFSSHGMSWVRQAPGKGLEWVATISSGGTYTYYPDSVKGRFTISRDNSKNTLYLQMNSLRAEDTAMYYCARHDFDYDAAWFAYWGQGTLVTVSS VL: EIVLTQSPATLSLSPGERATLSCRANSSVSYMYWYQQKPGQAPRPLIYLTSNRATGVPARFSGSGSGTDYTLTISSLEPEDFATYYCQQWSSNPPTFGQGTKLEIK	no binding	no binding	no binding	96 nM and 75 nM	1.9	110 nM	2.7					
VH2/Vκ10 (antibody, IgG4, V domains shown, IgG4 (S241P), kappa) VH: EVQLLESGGGLVQPGGSLRLSCAASGFIFSSHGMSWVRQAPGKGLEWVATISSGGTYTYYPDSVKGRFTISRDNSKNTLYLQMNSLRAEDTAMYYCARHDFDYDAAWFAYWGQGTLVTVSS VL: EIVLTQSPATLSLSPGERATLSCRANSSVSYMYWYQQKPGQAPRPWIYLTSNRATGIPARFSGSGSGTDFTLTISSLEPEDFATYYCQQWSSNPPTFGQGTKLEIK	no binding	no binding	no binding	61 nM	2.1	131 nM	3.2	0.0246 s⁻¹	407000 M⁻¹ s⁻¹	2.1		
VH2/Vκ12 (antibody, IgG4, V domains shown, IgG4 (S241P), kappa) VH: EVQLLESGGGLVQPGGSLRLSCAASGFIFSSHGMSWVRQAPGKGLEWVATISSGGTYTYYPDSVKGRFTISRDNSKNTLYLQMNSLRAEDTAMYYCARHDFDYDAAWFAYWGQGTLVTVSS VL: EIVLTQSPATLSLSPGERATLSCRANSSVSYMYWYQQKPGQAPRPLIYLTSNRATGIPARFSGSGSGTDYTLTISSLEPEDFATYYCQQWSSNPPTFGQGTKLEIK	no binding	no binding	no binding	152 nM	2.7	145 nM	3.5	0.0458 s⁻¹	302000 M⁻¹ s⁻¹	2.7		
VH2/Vκ11 (antibody, IgG4, V domains shown, IgG4 (S241P), kappa) VH: EVQLLESGGGLVQPGGSLRLSCAASGFIFSSHGMSWVRQAPGKGLEWVATISSGGTYTYYPDSVKGRFTISRDNSKNTLYLQMNSLRAEDTAMYYCARHDFDYDAAWFAYWGQGTLVTVSS VL: EIVLTQSPATLSLSPGERATLSCRANSSVSYMYWYQQKPGQAPRPWIYLTSNRATGIPARFSGSGSGTDYTLTISSLEPEDFAVYYCQQWSSNPPTFGQGTKLEIK	no binding	no binding	no binding	77 nM	2.7	122 nM	3	0.0289 s⁻¹	375000 M⁻¹ s⁻¹	2.5		

Second part, the binder after the results:

binding result [1]	binding result [2]	binding result [3]	Kd [4]	average relative KD to VH0/Vκ0 [4]	Kd [5]	relative KD to VH0/Vκ0 [5]	koff [4]	kon [4]	relative KD to VH0/Vκ0 [4]	binding result [6]	binding result [5]	Binder
										no binding (tested: 100 µg/ml)		VH2/Vκ3 (antibody, IgG4, V domains shown, IgG4 (S241P), kappa) VH: EVQLLESGGGLVQPGGSLRLSCAASGFIFSSHGMSWVRQAPGKGLEWVATISSGGTYTYYPDSVKGRFTISRDNSKNTLYLQMNSLRAEDTAMYYCARHDFDYDAAWFAYWGQGTLVTVSS VL: EIVLTQSPATLSLSPGERATLSCRANSSVSYMAWYQQKPGQAPRPWIYLTSNRATGVPARFSGSGSGTDYTLTISSLEPEDFATYYCQQWSSNPPTFGQGTKLEIK
										no binding (tested: 100 µg/ml)	no binding (tested: 50 nM)	VH4/Vκ3 (antibody, IgG4, V domains shown, IgG4 (S241P), kappa) VH: EVQLLESGGGLVQPGGSLRLSCAASGFIFSSHGMSWVRQAPGKGLEWVSTISSGGTYTYYADSVKGRFTISRDNSKNTLYLQMNSLRAEDTAVYYCARHDFDYDAAWFAYWGQGTLVTVSS VL: EIVLTQSPATLSLSPGERATLSCRANSSVSYMAWYQQKPGQAPRPWIYLTSNRATGVPARFSGSGSGTDYTLTISSLEPEDFATYYCQQWSSNPPTFGQGTKLEIK
										no binding (tested: 100 µg/ml)	no binding (tested: 50 nM)	VH4/Vκ5 (antibody, IgG4, V domains shown, IgG4 (S241P), kappa) VH: EVQLLESGGGLVQPGGSLRLSCAASGFIFSSHGMSWVRQAPGKGLEWVSTISSGGTYTYYADSVKGRFTISRDNSKNTLYLQMNSLRAEDTAVYYCARHDFDYDAAWFAYWGQGTLVTVSS VL: EIVLTQSPATLSLSPGERATLSCRANSSVSYMAWYQQKPGQAPRLLIYLTSNRATGIPARFSGSGSGTDFTLTISSLEPEDFAVYYCQQWSSNPPTFGQGTKLEIK
